Assay results published in PMC4364741, “Recognition of Neisseria meningitidis by the Long Pentraxin PTX3 and Its Role as an Endogenous Adjuvant” (PLoS ONE, 2015).

B1: Genome-derived Neisserial antigen GNA1030 (natural protein)
chain: ATYKVDEYHANARFAIDHFNTSTNVGGFYGLTGSVEFDQAKRDGKIDITIPIANLQSGSQHFTDHLKSADIFDAAQYPDIRFVSTKFNFNGKKLVSVDGNLTMHGKTAPVKLKAEKFNCYQSPMEKTEVCGGDFSTTIDRTKWGMDYLVNVGMTKSVRIDIQIEAAKQ
B2: Genome-derived Neisserial antigen GNA2091 (natural protein, Neisseria meningitidis, UniProt Q9JXE1 1-202, looked up)
chain: CVSAVIGSAAVGAKSAVDRRTTGAQTDDNVMALRIETTARSYLRQNNQTKGYTPQISVVGYNRHLLLLGQVATEGEKQFVGQIARSEQAAEGVYNYITVASLPRTAGDIAGDTWNTSKVRATLLGISPATQARVKIVTYGNVTYVMGILTPEEQAQITQKVSTTVGVQKVITLYQNYVQR
notes: GNA2091, recombinant surface molecule of Neisseria meningitidis

Biological target: T1, Biotinylated human PTX3 (bPTX3) (human, UniProt P26022 18-381, biotin (sites not given))
T1 construct: Long pentraxin 3 (PTX3), human, as m1 but biotinylated; secreted by CHO cells and purified from the supernatant; Same protein as m1 with a biotin label; also called human bPTX3
T1 sequence (P26022 18-381): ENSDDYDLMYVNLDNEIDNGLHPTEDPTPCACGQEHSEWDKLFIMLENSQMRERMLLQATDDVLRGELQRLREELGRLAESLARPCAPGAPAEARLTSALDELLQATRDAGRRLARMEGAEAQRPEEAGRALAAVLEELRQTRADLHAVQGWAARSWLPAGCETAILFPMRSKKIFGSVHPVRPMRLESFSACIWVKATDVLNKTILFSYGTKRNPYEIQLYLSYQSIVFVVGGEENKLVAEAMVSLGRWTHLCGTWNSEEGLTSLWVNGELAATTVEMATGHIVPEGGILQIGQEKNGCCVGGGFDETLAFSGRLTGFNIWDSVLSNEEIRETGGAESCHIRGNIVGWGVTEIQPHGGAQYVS
Experiment: ELISA; bPTX3 (0.56–17.92 pmol) on triplicate wells coated with 125 pmol/well of antigen; bound PTX3 from a standard curve of bPTX3; nonlinear fitting, one site binding curve; apparent
Settings: both partners purified

Binder | Kd
B1 | 0.037 µM
B2 | 0.004 µM
